This is an account of results in a protein production outcome set (Wang et al. 2014).

This data set can be described thus: label from the status in PepcDB records.
For “MQQHSSKTAYVYSDKLLQYRFHDQHPFNQMRLKLTTELLLNANLLSPEQIVQPRIATGDELMLIHKYDYVEAIKHASHGIISEDEAKKYGLNDEENGQFKHMHRHSATIVGGALTLADLIMSGKVLNGCHLGGGLHHAQPGRASGFCIYNDIAITAQYIAKEYNQRVLIIDTDAHHGDGTQWSFYADNHVTTYSIHETGKFLFPGSGHYTERGEDIGYGHTVNVPLEPYTEDASFLECFKLTVEPVVKSFKPDIILSVNGVDIHYRDPLTHLNCTLHSLYEIPYFVKYLADSYTNGKVIMFGGGGYNIWRVVPRAWSHVFLSLIDQPIQSGYLPLEWINKWKHYSSELLPKRWEDRLNDYTYVPRTKEISEKNKKLALHIASWYESTRQLEHHHHHH”, the protein production result was “failed”. As for “MSLLKNSSYILTLLSLFGFLLTWQRSAFSLFFLIPIFLTLFWEFFLFLKLRKNIIKEATLIKGSLFYRISMGDFYLYIFSFFLAIFGLVSLFLNFLNLEKIDFVFIFIILPLLMIFLKKELHLQFIDNAYNDFRIVVIASFFTALFYAFYGLFFTYNELLNLELFSRKIIAYKSASFVYFDFLSEFLHFVSNLKFFIFSYFGYLGFRALNFIFDFFNFFMFCSLLAFVFNFVLKIKIKIIVLFLCFIMVLGNYFLKEQRNNALKSEQEQILLWMNNFNFLKDNNLSLIQKEKDLFEKDLKDLREIFKKNAFEIGIWWFSKEKEDLEKRINESLK”, the protein production result is given as “failed”. For the sequence “MNIVTLLGSPRSRGISAAIAARFTDTAAGLGAQTRTFELNRLAYRGCQGCYACKKTLDHCVLTDDLAQVLDAVRGADVVVLASPVYYGDVTAQLKGFIDRTFSYLKPDYLSNPQPSRLSPKKLVFVLTQGHPDEGMFADIFPRYEGFLTWLGFVDARLIRACGFGPSTVDKVPEQYLREAEQAAREIVGQGKG”, the protein production result is recorded as “failed”. Turning to “MGDNWRYEVKYDGFRTILFWTKETIRLESRNERLLTDQFPEIHDFCQRISNKVEAWLPITIDGELVHLVSPYRAHFAPIQTRSFMRKHETIAASSIKTPATLLAFDILELKGKTLVDLPYDERKKQLKALLKAIDVPLEHHHHHH”, the protein production result is “failed”. Consider “MDLCRSSILLLIIALLSPRTLSMRYELKSSKTKCIGEEIHENAMSIGKYFIVNPNEDNHPLPDSHKIIVKVMPPQGKNLHEADKVEAGQFSFTAYENGSYVACITAIDYKPETTLTIDFDWKTGVHSKEWTNVAKKSQVDMMEYQVKTLMDTVISIHEEMYYLREREEEMQELNRSTNSKMAWLSFGSLVVCLSVAGLQFWHLKTFFEKKKLI”, for which the protein production result is “failed”. With “MENHSHANTHTDTRTDDKSTKIVRLLGLIGGALIALVIYYALNSQMPHIVEEIPKLSSLNYKAMPVVAGVAVLMGIWWMTEAIDLPATALLPLVLFSVFSVDQFASVSSSYASPIIFLFMGGFILALSMQKWNLHTRIALSIILLVGTSPRRLILGFMMATGFLSMWVSNTATAVMMLPVGMSVLQLVAKLVGKEDASNSWHQKEEITKAHGGIMSNIVHKGKDITQVIQEKTTIYRTNFSICLMLGIAYAASIGSLGTLIGTPPNALLAGYMKTAFNIEIDFAQWMVFGTPLAFIMLILAWLLLTYVIFPLKIKEIPGGKEVIRVELKKLGRLSQAEISVGIIFILASLGWIFLGVMLKSWGVKIDKIDSVIAMGVSALLFILPANHQGDRLIDWGVAKKLPWDVLLLFGGGLALSAQFSKTGLSLWIGHLVSGFSHLPILFIIVMVTLMVIFLTEITSNTATAAAFLPVIGGVAMGMGYENHQSLLLTIPVALSATCAFMLPVVTPPNAIAYGSGYVKITDMIKAGLWLNLVGVVLISTFSYFLVSLIFN”, the protein production entry was “failed”.

Take “MTDATVGDEAAAPTVVRLDASCTTQEVEAGEYYHATVNGVVEYGAFVDLSEHVSGLIHESTYSGDPDLAVDDDVIVHLSAVRDNGDLSFEFVDPEEYRTEQRSHAYERTTADAVGSRIGDTVHIEGEVVQIKQTAGPTVFRVRDETSAIPCTAFEDAGVRAHPGVEVGDIVHVSGDADDREGTTQLEVDAFEVLSGGDSADVARRLDAALAEQADPVDVDALVDWPALEQLLPDLRSVARTLRRAVLEGRPIRMRHHADGDGMCASLPVQYALRQFIEDTHQDEDAARHLLKRLPSKAPYYEMEDATRDLNFALEDRARHGQKLPLLLMLDNGSTEEDTPAYKTLDNYDIPIVVVDHHHPDPGAVDPLVDEHVNPYLHGEDYRITTGMLCVELARMIYPGITSDLEHVPAVAGLSDRSKADAMTDYLDLARDAGYDESFLQQMSEALDYEAYMLRYDHGTQVIADILNVDGDAQRHRELVPFLDRLASEAVAEQLDATRSHVEHERVASGANLYRIDVENHAHRFTYPRAGENNRRDPRPQGRGNRGAGDHHRLRPGLRGAPVGRRAPGHPHDGRRTQRRTPWGRRLRRRPPGRRLDPVRSRDA”: the protein production result is listed as “failed”. For “MDESCERVKAIYNEHEYLEAYSRHTDLRVDVDPKLAIGGMWEEIGKLQFEYLTKKGLQCHHELLDIGCGTLRGGRHFIKYLNSSNYYGVDISFKAIESAKELVVEEKLSDKKPQLLLDKNKSLNFNCYLGKTFDFIFAQSVFTHLKPEHISECFENIGQIMNEDSAFYFTYNNSVEYREVGFKNFYYPFDFFENLVERNGFKLKECKSEYAHPRGQIMVEIVKR”, the protein production entry is “failed”. The entry for “MFLSGAHSFNANCRRQRQRVFGAPRVPLGESKICCVWAQHFLPCSRVYDPMTSKVSSPTLLEALSSDFLACKICLEQLHTPKTLPCLHTYCQDCLAQLDIGGQVRCPECRETVPVPPEGVAAFKTNFFVNGLLDLVKARAAGDSHSGKPTCALCPLVGGKSSGGPATARCLDCADDLCQACADGHRCSRQTHKHRVVDLVGYRAGWYDEEARERQASQCPQHPGETLCFLCQPCSQLLCKDCRLGPHIDHPCLPLAEAVRSRKPGLEELLAGVDSNLLELEATRVAEKEALALLREQAASVGTQVEEAAERILKSLLAQKQEVLGQLRALVEAAEEATRERLTKIESQEQVAKAAAAFARRVLSLGLEAEILSLEGAITQRLRQLQDTPWTSGPTRCVLPQLELHPGLEDKNCHLLRLSFEEPRQSQKDGGKVGAGTQGGDEAQSQGDDRTKTGKQGGAQPLIPKEGKAQNPPEDDEVLIERGNRPNKKKKCKGRGKSVSREPSPILRPNLEGSGPLPRPVFSWSFPTRMPGDKRSPRITGLCPYGPQEILVADEQNRVLKRFSLNGDYKGTVPVPEGCSPCSVAALQNAVAFSANAKLYLVSPEGEVQWRRSLSLAQSSHAVAAMPCGDRVAVSVAGHVEVYKKEGSLATRFIPGGKASRGQRALVFLTTSPQGNFVGSDWQQNSVVFCDGLGQVIWEYKGPGLHGCQPGSVSVDKKGYIFLTLREVNKVVILDPKGSLLGDFLTAYHGLEKPRVTTMVDGKYLVVSLSNGTIHVFRVRFPDS” is “failed”. Regarding “MIIGIDVGGTNTDAAIVSDEIKTIKLPNEAGIGGILKEISKEANLIEEKVVVSTSWPLNLIISKFSESRTLSLVIPGPGLNYSEYGEVLKGYVNHRGDVVEDIDEYEIAAIFRENSYDNVAISSKFSVRNGSLEDRVAEIVRNYV”, the protein production entry was “failed”. Consider “MKAVILAAGRGSRLQALTDERPKALVPFNGVPLLQRAIETLRRCDVSEVGIVAGYRSEMLAPFADTLFYNHRWHSSGIFSSLNCASDWLSAEPCLVSYGDIFYDSTLVSELINHPADIVLGYDPAAVRLWQQRFNDPLPDLENFRLVDGWVSAIGQTATSLEVIQGQYMGLFKVTPAGWQALKKQLQGLTPQARDQTDMTSLLGTLVSEGFPVAGVATHAPWGEIDCPSDVALYERIYPDRLEHHHHHH”, for which the protein production result is “failed”. As for “MLAQQIVGIFLMTTGTLFVFVAGLGVLRLPDVYMRLHASTKAGTLGVALNAAGLVVFHPDLGIFTRAFALVLFLLLTAPVAAHMIGRASYFAREEMGVSIWDGTVVDRMLDHRGEALFSTGAPEDGADASGSPS”, the protein production result is recorded as “failed”. As to “MSLKSLASIENWPVPTAAAGVVRADGTVLGTHGPAAHRFPLASVTKPLAAYAALVAYEEGAIELDEPAGPPGATVRHLLAHTSGLAFDEHRVTAPPGDRRLYSNAGFEQLGDHIAKAAEMPFAEYARQAVLEPLGMTATSLAGSPAKDGVSTVDDLLRFAAEVQAPRLLDPRTVAEAMTVQYPGTKGVLPGYGHQNPNDWGLGFEIRDGKSPHWTGAASSPRTFGHFGQSGTFLWIDPDAALACVSLTDRAFGPWAVEAWPPFTDGVLAEVRG”, the protein production entry is “failed”.
